Data set [1] concerns the molecule itself. Briefly: SEC; gel filtration of purified UNC-13L C2A, wild type or K49E; calibrated with alcohol dehydrogenase (150 kDa), bovine serum albumin (66 kDa) and carbonic anhydrase (29 kDa); void volume 10.78mL. For orientation: Size exclusion chromatography separates by hydrodynamic size, large species first.
Data set [2] concerns the target T1, C. elegans UNC-13 long isoform residues 1-258 bearing the K49E mutation (C. elegans).
T1 chain: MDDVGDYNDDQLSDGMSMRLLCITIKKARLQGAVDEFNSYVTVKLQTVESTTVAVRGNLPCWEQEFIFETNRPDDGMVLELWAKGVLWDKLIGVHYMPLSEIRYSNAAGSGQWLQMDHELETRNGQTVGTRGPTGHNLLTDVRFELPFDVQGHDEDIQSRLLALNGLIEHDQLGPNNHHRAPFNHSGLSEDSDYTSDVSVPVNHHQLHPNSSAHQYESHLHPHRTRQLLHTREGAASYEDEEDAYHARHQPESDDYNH
In words: ITC. A general note: In ITC the heat of successive injections is recorded.

Substitutions are numbered along the chain they refer to. Numbers in names are those of the source.

B1: UNC-13L C2A domain, wild type (recombinant, gel filtration) (domain or fragment)
chain: T1 chain with E49K
Broadly, the stoichiometry N is the number of molecules, sites or subunits per partner or assembly. With B1, the “stoichiometry N” value in data set [1] is 2.

B2: C. elegans UNC-10 residues 62-121 WT (domain or fragment)
chain: KLVGTQDDAICQICQKTKFADGIGHKCFYCQLRSCARCGGRAQSKNKAIWACSLCQKRQQ
On to B2, for which, in data set [2], the Ka was found to be 789000 M⁻¹.

These data come from article doi:10.1101/388868, “Heterodimerization of UNC-13/RIM regulates synaptic vesicle release probability but not priming” (bioRxiv, 2018).
